Data from patent US20220257733A1, “ANTIGENIC POLYPEPTIDES AND METHODS OF USE THEREOF” (AGENUS INC., priority 2019, published 2022).
Non-standard residues stand in square brackets, D forms with d. No end group written: not given here. pT = C[C@@H](OP(=O)(O)O)[C@H](N)C(=O)O; pS = N[C@@H](COP(=O)(O)O)C(=O)O

Molecular target: HLA A*02:01 (Homo sapiens, UniProt P04439, D140Y/D185E/D98H/E176V/E277Q/G131W/G231S/I119V/I121R/I166T/I218V/L300P/L318F/N151K/N90K/P208A/P217A/Q86G/Q94H/R138H/R169H/T345S)
Assay: AlphaScreen assay of peptide binding to HLA A*02:01
Design: key to Kd in nM A*02:01: NT means that binding was not tested; NB means no binding was detected; LB stands for low binding and indicates that while some binding was observed, it was below the level that would allow accurate calculation of a Kd
Details: biotinylated HLA A*02:01 with excess β2m, Michaelis-Menten fit
Protocol: (§1) An AlphaScreen® assay was used to evaluate the binding of peptides to HLA molecules. Donor beads conjugated with streptavidin, and acceptor beads conjugated with the anti-human HLA class I antibody W6/32, were used to assess peptide binding. Biotinylated HLAs (A*02:01, B*07:02, C*07:01, or C*07:02) were mixed with a fixed excess of β2m and the mixtures added to each well of a 384-well microplate. Serial dilutions of the synthesized phosphopeptides were added to the wells, and the resultant HLA/β2/peptide mixtures were incubated overnight at 18° C. W6/32 conjugated acceptor beads were subsequently added to the wells, and the mixture was incubated for 1 hour at 21° C. Streptavidin conjugated donor beads were then added to the wells, and the mixture was incubated for a further 1 hour at 21° C.
(§2) The microplate was read using the PerkinElmer® plate reader, and data were plotted using the Michaelis-Menten equation to determine the Kd for each phosphopeptide.
Table 5 lists the Kd of each of the selected phosphopeptides to the indicated HLAs (A*02:01, B*07:02, C*07:01, or C*07:02). NT means that binding was not tested. NB means no binding was detected. […] In each case, the phosphopeptides bound as indicated below.

Molecule	Kd in nM A*02:01	Kd [nM]
CC[C@H](C)[C@H](NC(=O)[C@H](CO)NC(=O)[C@H](CCCNC(=N)N)NC(=O)[C@H](COP(=O)(O)O)NC(=O)[C@H](CC(C)C)NC(=O)[C@@H](N)Cc1ccccc1)C(=O)N1CCC[C@H]1C(=O)N[C@@H](CO)C(=O)N[C@@H](CC(C)C)C(=O)O [compound 228]		641
CC(C)C[C@H](NC(=O)[C@@H](NC(=O)[C@H](CC(C)C)NC(=O)[C@@H]1CCCN1C(=O)[C@H](COP(=O)(O)O)NC(=O)[C@@H]1CCCN1C(=O)[C@@H](NC(=O)[C@H](CCCNC(=N)N)NC(=O)[C@@H]1CCCN1C(=O)[C@@H](N)CCC(N)=O)[C@@H](C)O)C(C)C)C(=O)O [compound 657]	NB	
CC(C)C[C@H](NC(=O)[C@H](COP(=O)(O)O)NC(=O)[C@H](CCCNC(=N)N)NC(=O)[C@H](CCCCN)NC(=O)[C@H](CO)NC(=O)[C@H](CC(C)C)NC(=O)[C@H](Cc1ccccc1)NC(=O)[C@@H]1CCCN1C(=O)[C@@H](N)CO)C(=O)O [compound 1157]	NB	
CC[C@H](C)[C@H](NC(=O)[C@@H]1CCCN1C(=O)[C@H](COP(=O)(O)O)NC(=O)[C@H](CCCNC(=N)N)NC(=O)[C@@H]1CCCN1C(=O)[C@@H](N)CO)C(=O)N[C@@H](CO)C(=O)N1CCC[C@H]1C(=O)N[C@@H](CCC(=O)O)C(=O)N[C@@H](CC(C)C)C(=O)O [compound 1179]	NB	

Next, values leading:

Kd in nM A*02:01	Kd [nM]	Molecule
NB		CC(C)[C@H](NC(=O)CNC(=O)[C@@H]1CCCN1C(=O)[C@@H]1CCCN1C(=O)[C@@H](NC(=O)[C@H](CCCNC(=N)N)NC(=O)[C@@H]1CCCN1C(=O)[C@H](C)N)[C@@H](C)OP(=O)(O)O)C(=O)N[C@H](C(=O)N[C@@H](Cc1ccccc1)C(=O)O)[C@@H](C)O [compound 120]
	203	CC(C)C[C@H](NC(=O)[C@H](CCC(=O)O)NC(=O)[C@H](CCC(=O)O)NC(=O)[C@H](CC(C)C)NC(=O)[C@H](COP(=O)(O)O)NC(=O)CNC(=O)[C@H](Cc1c[nH]cn1)NC(=O)[C@H](Cc1ccccc1)NC(=O)[C@H](CC(C)C)NC(=O)[C@@H](N)CCCCN)C(=O)O [compound 424]
	188	CC[C@H](C)[C@H](NC(=O)[C@H](Cc1ccc(O)cc1)NC(=O)[C@H](COP(=O)(O)O)NC(=O)[C@H](CC(C)C)NC(=O)[C@H](CC(C)C)NC(=O)[C@@H](N)CCCCN)C(=O)N[C@@H](CCC(N)=O)C(=O)N[C@@H](CCCNC(=N)N)C(=O)N[C@@H](CC(C)C)C(=O)O [compound 433]
	231	CSCC[C@H](NC(=O)[C@H](CC(C)C)NC(=O)[C@@H](N)CCC(N)=O)C(=O)N[C@H](C(=O)N[C@@H](CC(C)C)C(=O)N[C@@H](CCC(=O)O)C(=O)N[C@@H](CC(N)=O)C(=O)N[C@@H](CCCCN)C(=O)N[C@@H](CC(C)C)C(=O)O)[C@@H](C)OP(=O)(O)O [compound 654]

Molecular target: T1, Biotinylated HLA-A*02:01 with β2m (human, biotinylated (site not stated))
T1 construct: MHC class I heavy chain mixed with excess β2m
Assay: AlphaScreen; biotinylated HLA + excess β2m + peptide dilutions, W6/32 acceptor beads, streptavidin donor beads
Details: not given
Protocol: as §1, §2

Molecule	binding result
YRL[pS]PEPTPL (predicted HLA-C*07:02 (not tested on it)) [YRLsPEPTPL]	no binding
SPR[pS]PISPEL (predicted HLA-B*07:02) [SPRsPISPEL]	no binding
APR[pT]PPGVTF (predicted HLA-B*07:02) [APRtPPGVTF]	no binding

Next, values leading:

binding result	Molecule
no binding	SPFLSKR[pS]L (predicted HLA-B*07:02) [SPFLSKRsL]
no binding	SRK[pS]FVFEL (predicted HLA-B*08:01 (not among the HLAs tested)) [SRKsFVFEL]
no binding	HRV[pS]VILKL (predicted HLA-B*14:01 (not among the HLAs tested)) [HRVsVILKL]

Molecular target: T1, Biotinylated HLA-A*02:01 with β2m
Assay: AlphaScreen; biotinylated HLA + excess β2m + peptide dilutions, W6/32 acceptor beads, streptavidin donor beads; Michaelis-Menten fit
Details: not given
Protocol: as §1, §2

Kd [nM]	Molecule
203	KLFHG[pS]LEEL (predicted HLA-A*02:01) [KLFHGsLEEL]
641	FL[pS]RSIPSL (predicted HLA-A*02:01) [FLsRSIPSL]
188	KLL[pS]YIQRL (predicted HLA-A*02:01) [KLLsYIQRL]
231	QLM[pT]LENKL (predicted HLA-A*02:01) [QLMtLENKL]
